Biological target: human amyloid Aβ40 (human) (UniProt P05067)

amount of Aβ40 left (Tricine-SDS-PAGE, quantitative scanning; solvent control defined as 100%) after 3 h at 37 °C in rabbit cerebrospinal fluid: 74.8%
Substance: human plasminogen purified from the plasma of human donors (enzyme)
